Here are results for two substances from publication PMC4629423.

What all share (assay): two-hybrid
Assay [1] addresses SARS-CoV accessory protein 9b (yeast two-hybrid fusions) (SARS-CoV Tor2 isolate).
The target of assay [2] is SARS-CoV accessory protein 8a (yeast two-hybrid fusions) (SARS-CoV Tor2 isolate).
Assay [3] concerns the target SARS-CoV accessory protein ORF14 (yeast two-hybrid fusions) (SARS-CoV Tor2 isolate).

Consider “SARS-CoV accessory protein 9b (yeast two-hybrid fusions) (natural protein)”, for which the α-Galactosidase in assay [1] was 2.52; in assay [2], 1.17. Also, the figures for the β-Galactosidase in assay [1] and in assay [2] were 8.8 and 6.91, respectively.
As to “SARS-CoV accessory protein ORF14 (yeast two-hybrid fusions) (natural protein)”, in assay [3], the α-Galactosidase was 1.84 and the β-Galactosidase worked out at 6.03.
